# Experimental data: patent US20200062863A1 (CSL BEHRING, published 2020)
# Residue numbers refer to the chain shown, from its start.
# B1: monoclonal antibody 3F7 (fully human IgG4/lambda) (antibody, V domains shown)
# VH: EVQLLESGGGLVQPGGSLRLSCAASGFTFSKYIMQWVRQAPGKGLEWVSGIRPSGGTTVYADSVKGRFTISRDNSKNTLYLQMNSLRAEDTAVYYCARALPRSGYLISPHYYYYALDVWGQGTTVTVSS
# VL: QSELTQPPSASGTPGQRVTISCSGSSSNIGRNYVYWYQQVPGTAPKLLIYSNNQRPSGVPDRFSGSKSGTSASLVISGLRSEDEADYYCAAWDASLRGVFGGGTKLTVLG
# notes: also called 3F7 mAb; MAb 3F7
# Experiments:
# N516S = target: T1, N516S; assay: Western blot of culture supernatant (non-reducing SDS-PAGE) probed with 3F7 mAb, anti-human IgG-FITC
# T1 construct: also called Mu-FXII N516S mutant with C-terminal 8xHis-tag; mutant l)
# T1 single chain: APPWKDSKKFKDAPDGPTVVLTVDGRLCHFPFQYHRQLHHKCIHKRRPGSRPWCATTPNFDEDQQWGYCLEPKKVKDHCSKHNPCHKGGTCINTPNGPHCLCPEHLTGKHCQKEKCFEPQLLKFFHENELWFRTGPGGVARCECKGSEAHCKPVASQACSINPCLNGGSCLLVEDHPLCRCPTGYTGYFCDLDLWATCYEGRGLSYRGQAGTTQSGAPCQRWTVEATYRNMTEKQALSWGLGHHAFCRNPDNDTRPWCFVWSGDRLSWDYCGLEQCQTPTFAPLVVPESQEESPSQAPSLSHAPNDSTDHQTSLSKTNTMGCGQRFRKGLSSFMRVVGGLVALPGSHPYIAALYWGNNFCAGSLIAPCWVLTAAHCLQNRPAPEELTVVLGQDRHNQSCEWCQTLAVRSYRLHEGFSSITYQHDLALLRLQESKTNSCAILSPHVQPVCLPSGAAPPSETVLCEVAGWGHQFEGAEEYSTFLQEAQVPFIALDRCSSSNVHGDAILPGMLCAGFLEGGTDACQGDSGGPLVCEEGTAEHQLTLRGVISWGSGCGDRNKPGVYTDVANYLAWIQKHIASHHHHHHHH
# Method: (§1) Proteins were then transferred electrophoretically onto nitrocellulose filters and blocked for 1 hour in 5% Milk powder in Tris-buffered saline with 0.05% Tween-20 (TTBS). Filters were then incubated for 1 hour with either 3F7 mAb or an anti-His mAb 3H3 (both at […] in TTBS with 5% Milk powder), washed thoroughly with TTBS, then incubated for a further hour with anti-human IgG-FITC or anti-mouse IgG-FITC, respectively (Millipore, USA; both at 0.25 mg/ml in TTBS with 5% Milk powder). Following further washing of membranes in TTBS, Ab-FITC bound proteins were visualized using a Typhoon variable mode analyzer (GE Healthcare, USA).
# human Factor XIIa-beta [1] = target: T2, human Factor XIIa-beta (human, UniProt P00748 354-615, limits assumed); assay: SPR (Biacore), KD against parental 3F7
# T2 construct: Bought from Enzyme Research Laboratories; also called FXIIa beta; FXIIa-beta
# T2 sequence: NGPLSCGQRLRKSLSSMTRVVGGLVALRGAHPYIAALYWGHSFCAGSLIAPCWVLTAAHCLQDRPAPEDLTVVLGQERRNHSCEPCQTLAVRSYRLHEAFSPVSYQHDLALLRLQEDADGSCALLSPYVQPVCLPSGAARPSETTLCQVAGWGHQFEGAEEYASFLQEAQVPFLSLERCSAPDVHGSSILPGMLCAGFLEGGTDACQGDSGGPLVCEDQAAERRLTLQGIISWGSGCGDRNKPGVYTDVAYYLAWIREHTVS
# human Factor XIIa-beta [2] = target: T2, human Factor XIIa-beta; assay: SPR (Biacore A100), unpurified IgG4 supernatant captured on anti-human IgG, single FXIIa beta concentration (100 nM), 37 C, 1:1 fit; estimated
# Method: Anti-human (Goat anti-human IgG (gamma) mouse adsorbed, Invitrogen, Cat No. H10500) was chemically immobilised on a CM-5 sensor surface using amine coupling chemistry. Culture supernatants were diluted 1/60 with running buffer before capture. Antibodies were captured for 180 seconds representing an average capture of 800 response units (RU). FXIIa beta was then injected at zero and 100 nM for 180 seconds, and dissociated for 180 seconds. All assays were conducted on a Biacore A100 instrument at 37 degrees Celsius and the data fitted to a 1:1 kinetic model.
# [3] = target: T3, recombinant wild-type murine Factor XII (Mu-FXII) with C-terminal 8xHis-tag (mouse, UniProt Q80YC5 20-597); assay: Western blot, non-reducing
# T3 construct: cDNA of the entire Mu-FXII protein (GenBank NM_021489) expressed in Freestyle 293 cells, culture supernatant used; also called recombinant murine FXII; wild-type Mu-FXII
# T3 sequence: T1 single chain with S497N
# Method: as §1
# human FXIIa = target: T4, human FXIIa (human, UniProt P00748 20-615, limits assumed); assay: cell-based or functional assay
# T4 sequence: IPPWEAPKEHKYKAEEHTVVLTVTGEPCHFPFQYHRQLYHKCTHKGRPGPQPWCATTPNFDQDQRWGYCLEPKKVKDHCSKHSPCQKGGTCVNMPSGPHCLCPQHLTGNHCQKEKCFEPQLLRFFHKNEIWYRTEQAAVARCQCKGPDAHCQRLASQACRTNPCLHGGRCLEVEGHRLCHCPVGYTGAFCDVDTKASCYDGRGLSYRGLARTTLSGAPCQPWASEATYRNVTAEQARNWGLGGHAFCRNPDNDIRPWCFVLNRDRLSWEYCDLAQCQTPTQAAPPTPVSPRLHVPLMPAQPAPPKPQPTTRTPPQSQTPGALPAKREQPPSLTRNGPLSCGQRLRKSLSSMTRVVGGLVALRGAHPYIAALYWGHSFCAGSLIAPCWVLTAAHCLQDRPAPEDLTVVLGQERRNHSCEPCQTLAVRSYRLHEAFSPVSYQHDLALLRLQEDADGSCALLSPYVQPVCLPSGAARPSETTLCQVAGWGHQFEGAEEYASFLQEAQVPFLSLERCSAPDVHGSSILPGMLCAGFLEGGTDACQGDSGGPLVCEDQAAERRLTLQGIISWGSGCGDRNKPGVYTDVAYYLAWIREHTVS
binder,measurement,setting,value
B1,binding result,N516S,binds
same,Fold affinity improvement,human Factor XIIa-beta [1],1 fold
same,Kd,human Factor XIIa-beta [2],33 nM
same,binding result,[3],binds
same,IC50 (read off the curve),human FXIIa,~10 nM
